In US20240092890A1 (JUNTENDO EDUCATIONAL FOUNDATION, published 2024):

T1: protein having an Fc region and a His-tag added to the N-terminus of SEQ ID NO: 1
T1 construct: also called mutant CALR protein (antigen of the BLItz measurement); not shown: Fc region and His-tag at the N-terminus
T1 chain: RRMMRTKMRMRRM

T2: Ins 5 type mutant CALR protein on UT-7/TPO CALR Ins 5 cells (UniProt P27797 18-417)
T2 sequence (looked up): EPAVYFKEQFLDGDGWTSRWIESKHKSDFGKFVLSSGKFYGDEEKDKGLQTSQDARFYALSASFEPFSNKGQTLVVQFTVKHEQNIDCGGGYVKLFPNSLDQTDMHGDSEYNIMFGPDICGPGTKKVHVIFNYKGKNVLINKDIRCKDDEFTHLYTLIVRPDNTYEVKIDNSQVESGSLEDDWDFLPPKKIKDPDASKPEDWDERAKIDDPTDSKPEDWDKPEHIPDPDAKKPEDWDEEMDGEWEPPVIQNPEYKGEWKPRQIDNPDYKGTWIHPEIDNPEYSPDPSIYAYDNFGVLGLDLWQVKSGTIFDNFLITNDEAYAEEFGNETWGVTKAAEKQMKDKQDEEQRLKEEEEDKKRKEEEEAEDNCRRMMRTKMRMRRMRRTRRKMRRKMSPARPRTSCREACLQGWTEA


Tests used:
[1] = biological target: T1, protein having an Fc region and a …; test: BLItz biolayer interferometry, Fc/His-SEQ ID NO: 1 protein on the biosensor
Procedure, shortened: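 The Fc/His-tagged protein was loaded at 0.1 mg/mL onto Anti-Penta-HIS or Protein A biosensors. Antibodies were run at 500, 100 and 50 nM by biolayer interferometry, and the dissociation constant was derived from these binding curves.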

[2] = biological target: T2, Ins 5 type mutant CALR protein on …; test: cell-based or functional assay
[3] = biological target: T2, Ins 5 type mutant CALR protein on …; test: cell-based or functional assay; remark: listed apart in the source

Binder | Kd [1] [nM] | EC50 of cytotoxic activity (calcein release, T-LAK effector cells) [2] [nM] | EC50 of cytotoxic activity (pM) [3] [pM]
B3 chimeric antibody (antibody, human IgG1, kappa, L234A L235A, monospecific anti-mutant CALR antibody, no CD3 arm) heavy: not shown light: DIQMTQSPASLSASLGETVSIECLASEDIYSYLAWYQQKPGKSPQLLIFAANRLQDGVPSRFSGSGSGTQFSLKISGMQPEDEGDYFCLQGSKFPYTFGPGTKLELNRTVAAPSVFIFPPSDEQLKSGTASVVCLLNNFYPREAKVQWKVDNALQSGNSQESVTEQDSKDSTYSLSSTLTLSKADYEKHKVYACEVTHQGLSSPVTKSFNRGEC | < 0.001 | > 10 | –
Antibody 86 (bispecific antibody) chain 1: not shown chain 2: DIQMTQSPSSLSASVGDRVTITCLASEDIYSYLAWYQQKPGKAPKLLIFAANRLQSGVPSRFSGSGSGTDFTLTISSLQPEDFATYYCLQGSKFPYTFGPGTKVDIKRTVAAPSVFIFPPSDEQLKSGTASVVCLLNNFYPREAKVQWKVDNALQSGNSQESVTEQDSKDSTYSLSSTLTLSKADYEKHKVYACEVTHQGLSSPVTKSFNRGEC | < 0.001 | – | 58
Antibody 88 (bispecific antibody) chain 1: not shown chain 2: DIQMTQSPSSLSASVGDRVTITCLASEDIYSYLAWYQQKPGKAPKLLIFAANRLQSGVPSRFSGSGSGTDFTLTISSLQPEDFATYYCLQGSKFPYTFGPGTKVDIKRTVAAPSVFIFPPSDEQLKSGTASVVCLLNNFYPREAKVQWKVDNALQSGNSQESVTEQDSKDSTYSLSSTLTLSKADYEKHKVYACEVTHQGLSSPVTKSFNRGEC | < 0.001 | – | 28
Antibody 89 (bispecific antibody) chain 1: not shown chain 2: DIQMTQSPSSLSASVGDRVTITCLASEDIYSYLAWYQQKPGKAPKLLIFAANRLQSGVPSRFSGSGSGTDFTLTISSLQPEDFATYYCLQGSKFPYTFGPGTKVDIKRTVAAPSVFIFPPSDEQLKSGTASVVCLLNNFYPREAKVQWKVDNALQSGNSQESVTEQDSKDSTYSLSSTLTLSKADYEKHKVYACEVTHQGLSSPVTKSFNRGEC | < 0.001 | – | 77
Antibody 90 (bispecific antibody) chain 1: not shown chain 2: DIQMTQSPSSLSASVGDRVTITCLASEDIYSYLAWYQQKPGKAPKLLIFAANRLQSGVPSRFSGSGSGTDFTLTISSLQPEDFATYYCLQGSKFPYTFGPGTKVDIKRTVAAPSVFIFPPSDEQLKSGTASVVCLLNNFYPREAKVQWKVDNALQSGNSQESVTEQDSKDSTYSLSSTLTLSKADYEKHKVYACEVTHQGLSSPVTKSFNRGEC | < 0.001 | – | 269
Antibody 91 (bispecific antibody) chain 1: not shown chain 2: DIQMTQSPSSLSASVGDRVTITCLASEDIYSYLAWYQQKPGKAPKLLIFAANRLQSGVPSRFSGSGSGTDFTLTISSLQPEDFATYYCLQGSKFPYTFGPGTKVDIKRTVAAPSVFIFPPSDEQLKSGTASVVCLLNNFYPREAKVQWKVDNALQSGNSQESVTEQDSKDSTYSLSSTLTLSKADYEKHKVYACEVTHQGLSSPVTKSFNRGEC | < 0.001 | – | 230
Antibody 92 (bispecific antibody) chain 1: not shown chain 2: DIQMTQSPSSLSASVGDRVTITCLASEDIYSYLAWYQQKPGKAPKLLIFAANRLQSGVPSRFSGSGSGTDFTLTISSLQPEDFATYYCLQGSKFPYTFGPGTKVDIKRTVAAPSVFIFPPSDEQLKSGTASVVCLLNNFYPREAKVQWKVDNALQSGNSQESVTEQDSKDSTYSLSSTLTLSKADYEKHKVYACEVTHQGLSSPVTKSFNRGEC | < 0.001 | – | 47
Antibody 94 (bispecific antibody) chain 1: not shown chain 2: DIQMTQSPSSLSASVGDRVTITCLASEDIYSYLAWYQQKPGKAPKLLIFAANRLQDGVPSRFSGSGSGTDFTLTISSLQPEDFATYYCLQGSKFPYTFGPGTKVDIKRTVAAPSVFIFPPSDEQLKSGTASVVCLLNNFYPREAKVQWKVDNALQSGNSQESVTEQDSKDSTYSLSSTLTLSKADYEKHKVYACEVTHQGLSSPVTKSFNRGEC | < 0.001 | – | 32
Antibody 9 (bispecific antibody, B3 VH-VL scFv and hOKT3 VH-VL scFv in one polypeptide, no Fc) QVQLQQSGAELVKPGSSVKISCKASGYTFTRNFIHWIKQQPGNGLEWIGWIFPGDGDTEYNQKFNGKATLTADKSSSTAYMQLSSLTSEDSAVYFCARGNYNYEYFDYWGQGVMVTVSSGGGGSGGGGSGGGGSDIQMTQSPASLSASLGETVSIECLASEDIYSYLAWYQQKPGKSPQLLIFAANRLQDGVPSRFSGSGSGTQFSLKISGMQPEDEGDYFCLQGSKFPYTFGPGTKLELNGGGGSQVQLVQSGGGVVQPGRSLRLSCKASGYTFTRYTMHWVRQAPGKGLEWIGYINPSRGYTNYNQKVKDRFTISRDNSKNTAFLQMDSLRPEDTGVYFCARYYDDHYSLDYWGQGTPVTVSSGGGGSGGGGSGGGGSDIQMTQSPSSLSASVGDRVTITCSASSSVSYMNWYQQTPGKAPKRWIYDTSKLASGVPSRFSGSGSGTDYTFTISSLQPEDIATYYCQQWSSNPFTFGQGTKLQITRHHHHHH | 6.55 | 1.53 | –
Antibody 101 (bispecific antibody, human IgG1, kappa, L234A L235A) chain 1: not shown chain 2: DIQMTQSPSFVSASVGDRVTITCLASEDIYSYLAWYQQKPGKAPKLLIFAANRLQDGVPSRFSGGGSGTGFTLTISSLQPEDFATYFCLQGSKFPYTFGQGTKLEINRTVAAPSVFIFPPSDEQLKSGTASVVCLLNNFYPREAKVQWKVDNALQSGNSQESVTEQDSKDSTYSLSSTLTLSKADYEKHKVYACEVTHQGLSSPVTKSFNRGECGGGGSGGGGSQVQLVQSGGGVVQPGRSLRLSCKASGYTFTRYTMHWVRQAPGKGLEWIGYINPSRGYTNYNQKVKDRFTISRDNSKNTAFLQMDSLRPEDTGVYFCARYYDDHYSLDYWGQGTPVTVSSGGGGSGGGGSGGGGSDIQMTQSPSSLSASVGDRVTITCSASSSVSYMNWYQQTPGKAPKRWIYDTSKLASGVPSRFSGSGSGTDYTFTISSLQPEDIATYYCQQWSSNPFTFGQGTKLQITR | < 0.001 | – | 1660
Antibody 13 (bispecific antibody, human IgG1, kappa, L234A L235A, B3 IgG with knob-into-hole heavy chains, hOKT3 scFv fused to the C-terminus of one heavy chain) heavy 1: not shown heavy 2: QVQLQQSGAELVKPGSSVKISCKASGYTFTRNFIHWIKQQPGNGLEWIGWIFPGDGDTEYNQKFNGKATLTADKSSSTAYMQLSSLTSEDSAVYFCARGNYNYEYFDYWGQGVMVTVSSASTKGPSVFPLAPSSKSTSGGTAALGCLVKDYFPEPVTVSWNSGALTSGVHTFPAVLQSSGLYSLSSVVTVPSSSLGTQTYICNVNHKPSNTKVDKRVEPKSCDKTHTCPPCPAPEAAGGPSVFLFPPKPKDTLMISRTPEVTCVVVDVSHEDPEVKFNWYVDGVEVHNAKTKPREEQYNSTYRVVSVLTVLHQDWLNGKEYKCKVSNKALPAPIEKTISKAKGQPREPQVCTLPPSREEMTKNQVSLSCAVKGFYPSDIAVEWESNGQPENNYKTTPPVLDSDGSFFLVSKLTVDKSRWQQGNVFSCSVMHEALHNHYTQKSLSLSPGKGGGGSQVQLVQSGGGVVQPGRSLRLSCKASGYTFTRYTMHWVRQAPGKGLEWIGYINPSRGYTNYNQKVKDRFTISRDNSKNTAFLQMDSLRPEDTGVYFCARYYDDHYSLDYWGQGTPVTVSSGGGGSGGGGSGGGGSDIQMTQSPSSLSASVGDRVTITCSASSSVSYMNWYQQTPGKAPKRWIYDTSKLASGVPSRFSGSGSGTDYTFTISSLQPEDIATYYCQQWSSNPFTFGQGTKLQITR light: DIQMTQSPASLSASLGETVSIECLASEDIYSYLAWYQQKPGKSPQLLIFAANRLQDGVPSRFSGSGSGTQFSLKISGMQPEDEGDYFCLQGSKFPYTFGPGTKLELNRTVAAPSVFIFPPSDEQLKSGTASVVCLLNNFYPREAKVQWKVDNALQSGNSQESVTEQDSKDSTYSLSSTLTLSKADYEKHKVYACEVTHQGLSSPVTKSFNRGEC | < 0.001 | 4.47 | –
Antibody 14 (bispecific antibody, human IgG1, kappa, L234A L235A, B3 IgG with hOKT3 scFv fused to the heavy chain C-terminus) heavy: not shown light: DIQMTQSPASLSASLGETVSIECLASEDIYSYLAWYQQKPGKSPQLLIFAANRLQDGVPSRFSGSGSGTQFSLKISGMQPEDEGDYFCLQGSKFPYTFGPGTKLELNRTVAAPSVFIFPPSDEQLKSGTASVVCLLNNFYPREAKVQWKVDNALQSGNSQESVTEQDSKDSTYSLSSTLTLSKADYEKHKVYACEVTHQGLSSPVTKSFNRGEC | < 0.001 | 0.989 | –
Antibody 15 (bispecific antibody, human IgG1, kappa, L234A L235A, B3 half IgG hetero-associated by knob-into-hole with hOKT3 scFv-Fc) heavy: not shown light: DIQMTQSPASLSASLGETVSIECLASEDIYSYLAWYQQKPGKSPQLLIFAANRLQDGVPSRFSGSGSGTQFSLKISGMQPEDEGDYFCLQGSKFPYTFGPGTKLELNRTVAAPSVFIFPPSDEQLKSGTASVVCLLNNFYPREAKVQWKVDNALQSGNSQESVTEQDSKDSTYSLSSTLTLSKADYEKHKVYACEVTHQGLSSPVTKSFNRGEC QVQLVQSGGGVVQPGRSLRLSCKASGYTFTRYTMHWVRQAPGKGLEWIGYINPSRGYTNYNQKVKDRFTISRDNSKNTAFLQMDSLRPEDTGVYFCARYYDDHYSLDYWGQGTPVTVSSGGGGSGGGGSGGGGSDIQMTQSPSSLSASVGDRVTITCSASSSVSYMNWYQQTPGKAPKRWIYDTSKLASGVPSRFSGSGSGTDYTFTISSLQPEDIATYYCQQWSSNPFTFGQGTKLQITREPKSCDKTHTCPPCPAPEAAGGPSVFLFPPKPKDTLMISRTPEVTCVVVDVSHEDPEVKFNWYVDGVEVHNAKTKPREEQYNSTYRVVSVLTVLHQDWLNGKEYKCKVSNKALPAPIEKTISKAKGQPREPQVCTLPPSREEMTKNQVSLSCAVKGFYPSDIAVEWESNGQPENNYKTTPPVLDSDGSFFLVSKLTVDKSRWQQGNVFSCSVMHEALHNHYTQKSLSLSPGK | 6.68 | 1.29 | –
